How the values were obtained:
[1] = target: Biotin-GCN4 peptide (yeast); assay: SPR (Biacore 3000), Biotin-GCN4 peptide captured on immobilised streptavidin, Fab-scFv injected, 1:1 binding model
[2] = target: Biotin-GCN4 peptide (yeast); assay: SPR, Biacore 3000, 25 C; biotin-GCN4 peptide captured on streptavidin CM5 chip, Fab-scFv as analyte from 30 nM, 1:1 model

- koff [1]: 0.00027 s⁻¹
- kon [1]: 510000 M⁻¹ s⁻¹
- Kd [2]: 0.516 nM
B1: Fab-scFv (anti-GCN4 52SR4 scFv fused to a Fab, generated in-house) (Fab, part only; not given: carrier Fab and its linker, not shown: another chain or arm of the molecule; large carriers; small tags and cut ends)
scFv: DAVVTQESALTSSPGETVTLTCRSSTGAVTTSNYASWVQEKPDHLFTGLIGGTNNRAPGVPARFSGSLIGDKAALTITGAQTEDEAIYFCVLWYSDHWVFGCGTKLTVLGGGGGSGGGGSGGGGSGGGGSDVQLQQSGPGLVAPSQSLSITCTVSGFLLTDYGVNWVRQSPGKCLEWLGVIWGDGITDYNSALKSRLSVTKDNSKSQVFLKMNSLQSGDSARYYCVTGLFDYWGQGTTLTVSSAAAHHHHHHEQKLISEEDL

Reference: patent US20180346604A1
